Test results: patent US10801046B2, “Methods and materials for biosynthesizing multifunctional, multivariate molecules via carbon chain modification” (INVISTA NORTH AMERICA S.A.R.L., priority 2016, dated 2020)

B1: SEQ ID NO: 213: Helobdella robusta carboxylate reductase (protein, listed as Helobdella robusta)
chain: MRVSNNGPFLGHRCRFTKQYVWQTYEEIFELCQDFGSALIYKGLKPEDSTVIGIYSHNCVEWNITSETCSMFSMALVPLYDTLGPEACQYIINQTEMTTVVCEGWLKANLILNGLKQAESRTATPLKRLIIITNKDFHMSLKDSVRVSKHFSSSPDLANFADADSLSKNVLETAEKFGVEIPPTPSTINLISYTSGTTGDPKGVVLTHEAVICNISGLLAYDQHHKLFPKCGDFHLSYLPAAHGFERMNQIILMINGGQIGFSSGDILLLLDDIAALRPTIFMCVPRVLNRVYEKVMSNLENKPIKRWLFNFGMQRKLNLLKRGIITKNTIWDKLMFHKIQTLFGGRLEVCISGSAPLSDVVMDFCRGTFGCFVYEGYGQTELCAATMLTLPYEHDTVVVGPPLPNCHIKLIDIPDLDYKAINNMGEICIKSFCRMREYFKEPIKTRETLDEDSYIHTGDVGMWLPNGNLRIIDRRKHVFKLAQGEYVAPEKIENIYAMSPLICQVFVDGNSLQFCPLAVVVPDEDALKRLAERDSRTSKTICPIKICNMEQFCKNEEIRKMIHADMLQRGKKAGLKGFEQVKDIHLHPEKFSIENGLLTPTMKTKRPILRKKFQNIFVEMYEKLNRNVVSTNITTHPLQNL
B2: SEQ ID NO: 208: Ascaris suum carboxylate reductase (protein, listed as Ascaris suum)
chain: MRYWWKTSHSNYKLDAVCDINNQTRELPVSVASCKDGSRVAACLDGDHLAPFIHEDALTLYEGVRRGLRVSNNGPMLGYRKKQPDGSEPYVWLTYKEVIDRAVDFAYGLLDVGIPAGQKTFIGVYAKNRPEWVIAEQGTYNNNSVLVPLYETLGPDACTFIINQSEMSMVICDTEVKAAGLLKEKENIPTLKYLVVMEDYTNGLREAAAREGVYVYHFLDIEKRGREFVNKPALQIPSPGDVCTICYTSGTTGAPKGVMLTHGNVIAAATALTFVRNINFCETDVVISFLPLAHMFERLLECIIFQTGAHVGFFSGDIRRLPEDIKELRPTVIPLVPRVLNRIYDKVMSEVNKSFIKKAVFHFALAFKVRELRNGIVRNDSVFDKLVFNKIRDAMGGRVKLMVTGSAPLAEKVMTFARAAMGCVVLEGYGQTECAAASTLGIEADTRAGHVGIPSICNAVKLVDVPELEYYAKDMVGEVCIRGFNVFKGYYKNDELTREVLDDQGWLHTGDVGRWTENGTLQIIDRKKHIFKLSQGEYVAPEKIEGIYARSKYVAQSFVHGESLKTCLVGVIVPDPEALERVAAERFGLKDVKLKELCSNEAVRQLILEDITAVGKKAGLFSFEQVKDIFLTPDAFSVGNDLLTPTLKNKRPKLKEHFAAQLESMYSKLN
B3: SEQ ID NO: 207: Dictyostelium discoideum carboxylate reductase (protein, listed as Dictyostelium discoideum)
chain: MINNWLAVGLLVVSGILAFNWKRKHPYGQTVEIGEKPENGGRIRRNSACADHLISFLEDDEIYTLYDSLVKSCKKYGERKCFGERKKDSNGNLGKFEWISYNTYLERCEYIQQGLCELGLKPKSKVGIFSKNRLEWLIVHSASFIQSYCVVSFYETLGVESLSYVTEHAEIGLAFCSAETLQKTLDIAKGVKVLKTIICFDSIDKEHYNIAKELGVTLYTYDEIMKKGKEANGKHKHTPPTPDTLSTIMYTSGTTGPPKGVMITHKNLTSVVCAVSDFIKVYDTDVHYSYLPYAHVLERVVILAAFHFGAAIGIFSGDISNILVEVKLLSPTLFIGVPRVFERIKTNVFKEISKKPALLRTLFNGAYNLKYLSIQHGFKLPIIEKVLDLVFFSKIKQALGGKVRVILSGSAPLSFDTEVFLRVVMCCCVLQGYGASEGCGGDACKRLDDESVGTIGPPFASNEIKLVDVPELGYDSNGEVQTGEVCLRGPSISSGYYKDEEKTREEFKDGWFHTGDIGRWNRDGSLSIVDRKKNIFKLSQGEYVAVEKIETIVVKSEYVEQVCIYGDSQKSCVIAIIHPHPESCSEWAGSKKTDKDIKEICKNQDFIKVVLDDIIKNCKKSGLHGFEIPKAIHLTPEAFSDQNNLLTPSFKLKRHEIKKYFEDEIKKLYSKLD
B4: SEQ ID NO: 210: Rhizopus microspores carboxylate reductase (protein, listed as Rhizopus microsporus)
chain: MPPAFDPPYSVPVPGSEKKEGETVPFRHFKFADKLVDHPEGVFTAWDIFVHGYDSAGDKPFMGTRRIEDGVAKEYVWQNYPEVRTRIENFGKGMLHLGLKRQHAIGVYSVNRPEWTMTEIASYRQAFMIVALYDTLGAEAMEYIINQTSMEYIVLSADKLDNIIRLKSQIATISTAIVMDDEVDDAKKAEAEAAGIKVYTFRQVETMGSEITSESDLPKPEDIATICYTSGTTGVPKGAVITQANCVAAISAIAALGDKGTFADVNSDDIYISYLPLAHVFERVAQGIHLFRGAAIGYYQGDTLKLLDDIAELRPTVFCSVPRLFNRIYDKVLAGVKAKGGVSAYLFNTAFQSKKRHLSKTVHHWLWDRVVFTQIRQKLGGRLRFILSGSAPVSPDVMDFMRICFSAKVFEGYGQTENFCGGALTITDDNTSGVVGAPFPCSEIKLVDVPEMEYFSTDKPFPRGEICIRGTSIMQGYYQLPEKTAEAIDKDGWLHTGDIGQFDSANRLVIIDRLKNIFKLSQGEYIAPEKIEGVYQKHELVAQAFIYGDSMQSSLVGIIVPDKDAFSAWAKEHFPTVEDPYASDEVKKALLKELTAYGKENDLKGFEQMRSVYLTPNEFSIENDLLTPTFKLRRENAKKVYESQIEIMYASLSNGRAFN
B5: SEQ ID NO: 212: Anisakis simplex carboxylate reductase (protein)
chain: MYERLLHCIGYQVGLRFGFFGGDVNRLIDDIKELHPTVIPLVPRVLNRFHDTVMAKVNKSFLKRIIFNLALAFKYRELSRSIIRNDSLVDRYVFKRVREELGGRARFSMIGSAPVHGDILRFSRAVLGYVIVEGYGATECAAGTSAVIEADPITEHIGIPLACAAIKLVDVPELGYYAKDQAGEICYRGAHVFKGYFKNDEGTKEVLDADGWLHSGDIGRWTERGTLKIVDRKKHIFKLQQGEYIAPEKIEAVYDRSEYVVQSFVYGESLKTCLVAIIVPDQEIVLRDAKQKLDLAETDFAKLCRNDAVKKMILNDLTIVGRKAGLNSFEQVKDIYLSVERFTIANDLLTPTMKNKRPQIKSHFMKELNEMYSKLK
modifications: Anisakis simplex
notes: Anisakis simplex carboxylate reductase
B6: SEQ ID NO: 209: Nocardia brasiliensis NBRC 14402 carboxylate reductase (protein)
chain: MERKAEVLAARRVEDLIERDAQVRAAIPDPVVTAELERADGSLAQTVARVMAGYADRPALGQRAVEFVPDENGCRRTRLLPWFDTITFGELWQRVGTVAAVWQSRAERSVRAGDFVAVLGSTGIDYTVVDLACTYSGAVPVPLQAGASPTQLAPIVREVEPKVLATDVGQLEVAVDLASAGDSVRSLLIFGLYAEDDEHCAAVESARRRLADTPVVVETIVELLASGQDRPAASLHASADPDELALLIYTSGSTGTPKGAMYTQRLLTNAWCAAGASPMPSIALSYLPMSHTMARQLLLTGLARGGTVYFAARNDMSTLFDDFALARPTLLGFVPRVCDMVLQRFQSEMARRVGADDEPTVVEQEVKTELREQFLGGRFLVASIGSAPLSADMREFMQSVLGIALIDAYGSTETGGVLMNNKVVRTAILDYKLVDVPELGYFSTDRPHPRGELLIKSRTLIPGYYKRPELNSQFFDAEGFYRTGDVMAQTGFDELVYVDRRNSVLKLSQGEFVAVSKLEAIFVGSPLVEQIYVYGSSERAYLLAVIVPVAEAIATHAGTAELKAAISESLRQIAKDAELSSYEVPRDFLLESEPFTVDNGLLAGLSKLLRPSLKERYGERLEALYRVAEAAQTQELAALRQQAGMLPVLETVSRAAQAVLGVSAAELRPDAHFTDLGGDSLAALSFSTLLQELLGVQVPVGVIASSANDLRRIANYAVAERSAGSLRPTSTGVHGTGSQLRAIDLRLDKFIDPSTLAAATTLPRAGEPRTVLLTGANGYLGRFLCLEWLQRLHHSGGTLICVVRGIDAVAARERLDEVFDSGDPELLHRYRELAEGTLEVLCGDISEPGLGLSERDWRRLADTVELIVHAAALVNHVLPYGQLFGPNVVGTAEIIRLAMTTRIKPVTYLSTVAVAAQVAPEQFTEDGDIREISAVRSLDEGYADGYGTSKWAGEVLLREAYDLCGLPVAVFRSDMILAHSRFAGQLNVSDMFTRLVLSVLATGVAPKSFYETDRMGNRQRAHYDGLPVDFTAQAITVLGSQVVSGFETFDVLNPHDDGLSLDEFVDWLIAAGHSIDRIDGYAEWLSRFGTALRVLSERQRQHSVLPLLHAYRRAAVPIPGAALPAKKFQAAVQDAQLGPGRDIPHLTPDLIEKYVSDLKLRNLL
modifications: Nocardia brasiliensis NBRC 14402
notes: Nocardia brasiliensis NBRC 14402 carboxylate reductase
B7: SEQ ID NO: 211: Theileria parva carboxylate reductase (protein, listed as Theileria parva)
chain: MNHLYSVALEGTEEEGYTPVYRNPDYKDRLLSCEDYFDGKIQTGWDIFNRGLTLSRNKPFLGSRVKNADGTFGEFKFMTYGEVEDQIKHFGSGLLNLDKFKEVFVKEENQMVKMLGIYSQNTVEWLITEQVCNGYNLTLVPLYDTLGEESLLYIINVTKLNVIVCDYKCSLKLLDLLPKSNGSVSLVVVTGVDELPDQVTAKSQSLSSVTFKTYQEVVNFGKEDPLAFTPCTKDSIGTISYTSGVSGIPKGVIVKHFQHASLVVIVNRIVCDLEKTQLENPKVHLSYLPLSHMFERLYIGTSIIEGSVIGLFSGDVKNILEDIKALRPNVFPSVPRLYMRIHDKIFSTVSQKSFLIRSLFGLGLSRKLKKIRKTGVVTHRFWDKILFNKFNTLLGGRVNWMLTGSAPLSPKIFDNIRALFSIPLVSGYGLTETCAGAFHTERYEPDSTHVGGPVPCMEFRLKSLPDYNYYTTDKNPKGELLLRGNNIVTSYFSDDVTNKESFDENKWFLTGDIAELLPNGAIRIIDRRKNIFKLSQGEYISPEKIESILNTAPILCQSYVTGKSHFLNPVAVVVPDELELELWSKRYGLANLDRKEQCEVKQLKEFIAKEIEKVFENSDVKGFEKIKNFYVEHELFSIENNLLTTTSKLKRYNLSKKYAEQIDRLNDES

Assay: In vivo carboxylate reductase screening, substrate consumption by LC-MS, monomethyl heptanedioate
Type: cell-based, Escherichia coli
Conditions: 541 enzymes screened in vivo
Method: To screen carboxylate reductases in vivo, […] T7- pUC expression vectors was co-transformed into T7 Express lysY/Iq with the phosphopantetheinyl transferase sfp from Bacillus subtilis on a T7-pCDF expression vector. Biological duplicates of the resulting strains were incubated in 0.5 mL of terrific broth containing either 1 g/L heptanedioate or 1 g/L monomethyl heptanedioate and supplemented with 0.4 mM IPTG in 96-well deep well plates. The plates were incubated for 30 h at 30° C. in a shaking incubator. The cells were then pelleted, and culture supernatants from the same strains in media containing either heptanedioate or monomethyl heptanedioate were combined. The combined supernatants were analyzed by LC-MS to determine the concentration of heptanedioate and monomethyl heptanedioate. Carboxylate reductase activity on heptanedioate or monomethyl heptanedioate was reflected by consumption of the respective substrate in the medium.

Row | Molecule | monomethyl heptanedioate activity
1 | B1 | most monomethyl heptanedioate activity
2 | B2 | most monomethyl heptanedioate activity
3 | B3 | most monomethyl heptanedioate activity
4 | B4 | most monomethyl heptanedioate activity
5 | B5 | most monomethyl heptanedioate activity
6 | B6 | most monomethyl heptanedioate activity
7 | B7 | most monomethyl heptanedioate activity
